Test results taken from IntAct's records for PubMed 22922713.

B1: WD repeat-containing protein 19 (Mus musculus), Q3UGF1 (parent)
chain: MKRVFSLLEKSWLGAPIQFAWQKSSGNYLAVTGADYIVKIFDRHGQKRSEISLPGNCVTMDWDKDGDILAVIAEKSSCIYLWDANTNKTSQLDNGMRDQMSFLLWSKIGSFLAVGTIKGNLLIYNHQTSRKIPVLGKHTKKITCGCWNSENLLALGGEDKMITVSNQEGDTIRQTPVKSEPSDIKFSMSKTDERISSAENTISAVVGKKMLFLFHLNEPDNPVDLEFQQAYGNIVCYSWYGDGYIMIGFSRGTFLAISTHFPEVGQEIFKARDHKDNLTSVALSQTLNKAATCGDNCIKIHDLTELRDMYAIINLDDENKGLGTLSWTDDGQLLALSTQRGSLHVFLTKLPILGDACHTRIAYLTSLLEVTVANLIEGEPPITVSVDVEPTFVAVGLYHLAVGMNNRAWFYVLGENVVKKLKDVEYLGTVASICLHSDYAAALFEGKIQLHLIENEMLDAQEERETRLFPAVDDKCRILCHALTSDFLIYGTDTGIIHYFFIEDWQFVNDYRHPVGVKKLFPDPNGTRLVFIDEKSDGFVYCPVNDATYEIPDFSPTIKGVLWENWPMDKGVFIAYDDDKVYTYAFHKDTIQGSKVILAGSTKLPFSHKPLLLYNGELTCQTQSGKINSIYLSTHSFLGSMKDTEPTDLRQMLTQTLLLKRFSDAWDICKMLNDRTSWSELAKACLHHMEVEFAIRVSRTMGDVGTVMSLEQIKGIEDYNLLAGHLAMFTNDFNLAQDLYLASNCPVAALEMRRDLQHWDSALQLAKRLAPDQIPFISKEYAIQLEFTGDYVNALAHYEKGITGDNKEHDEVCLAGVAQMSIRMGDIRRGANQALKHPSRVLKRDCGAILENMKQFSEAAQLYEKGQYYDRAASVYIRCKNWAKVGELLPHVSSPKIHLQYAKAKEADGRYKEAVVAYENAKQWNSVIRIYLDHLNNPEKAVSIVRETQSLDGAKMVARFFLQLGDYGSAIQFLVLSKCNNEAFTLAQQHNKMEIYADIIGAEDTTNEDYQSIALYFEGEKRHFQAGKFFLLCGQYSRALKHFLKCPSSEDNVAIEMAIETVGQAKDELLTNQLIDHLMGESDGMPKDAKYLFRLYMALKQYREAARTAIIIAREEQSAGNYRNAHDVLFSMYAELKAQKIKIPSEMATNLMILHSYILVKIHVKSGDHMKGARMLIRVANNISKFPSHIVPILTSTVIECHRAGLKNSAFSFAAMLMRPEYRNKIDAKYKKKIEAMVRRPDTSETEEATTPCPFCQFLLPECELLCPGCKNNIPYCIATGRHMLKDDWTMCPHCGFPALYSEFKILLNSESTCPMCSERLNSSQLKKITDCSQYLRTEME
partner: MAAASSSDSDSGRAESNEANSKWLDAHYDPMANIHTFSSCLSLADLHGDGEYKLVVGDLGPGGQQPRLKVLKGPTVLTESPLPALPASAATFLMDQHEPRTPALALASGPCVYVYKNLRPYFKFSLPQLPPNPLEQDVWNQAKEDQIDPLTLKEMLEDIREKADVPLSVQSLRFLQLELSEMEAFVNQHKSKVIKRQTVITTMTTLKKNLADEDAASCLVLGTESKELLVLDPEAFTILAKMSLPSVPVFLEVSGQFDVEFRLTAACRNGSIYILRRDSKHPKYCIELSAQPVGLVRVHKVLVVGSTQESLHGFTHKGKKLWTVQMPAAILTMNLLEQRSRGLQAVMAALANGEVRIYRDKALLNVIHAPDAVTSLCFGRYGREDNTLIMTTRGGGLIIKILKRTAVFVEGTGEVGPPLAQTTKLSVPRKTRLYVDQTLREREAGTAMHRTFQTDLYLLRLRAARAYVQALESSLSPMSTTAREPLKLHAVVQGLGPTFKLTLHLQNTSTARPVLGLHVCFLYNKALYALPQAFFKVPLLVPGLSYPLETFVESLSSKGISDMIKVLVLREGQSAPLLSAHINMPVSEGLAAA

Variants of: B1
Details: with bbs1_mouse Bbs1, Q3V3N7

| Variant | effect of a mutation on the interaction |
| --- | --- |
| G341R | decreasing interaction strength |
